The values below come from US20150219657A1.

For assay [1], the target named is Active Akt2 (with N terminal His6 tag) (human) (UniProt P31751). Briefly: single-component ELISA, bi-L as detection agent (FIG. 23A, given there as EC50). On the technique in general: An ELISA detects its analyte on a solid surface through an enzyme-linked reagent.
For assay [2] the target is unchanged. Briefly: single-component ELISA, mono-L as detection agent (FIG. 23A, given there as EC50).
Assay [3] has the same target. The experiment in a line: single component ELISA, N-tL as surface-localized capture agent (FIG. 23A).
For assay [4] the target is unchanged. Briefly: SPR, Biacore T100, biotinylated N-tL on SA chip, Akt2 protein as analyte, 10° C., 1:1 binding model. A general note: In SPR one partner is held on a chip, and binding of the other changes the refractive index at the surface.
The target is the same in assay [5]. The experiment in a line: summary sentence of Example 1; method not given.

Square brackets hold non-standard residues; d marks the D form. Ends that are not written are not given here. S1 = acylated D-Pra whose alkyne is clicked through a 1,2,3-triazole to acylated azidolysine-PEG2-biotin; dPra = C#CC[C@@H](N)C(=O)O

Sequence of Active Akt2 (with N terminal His6 tag) (human) (P31751 other isoform, or with tags, fused parts or gaps): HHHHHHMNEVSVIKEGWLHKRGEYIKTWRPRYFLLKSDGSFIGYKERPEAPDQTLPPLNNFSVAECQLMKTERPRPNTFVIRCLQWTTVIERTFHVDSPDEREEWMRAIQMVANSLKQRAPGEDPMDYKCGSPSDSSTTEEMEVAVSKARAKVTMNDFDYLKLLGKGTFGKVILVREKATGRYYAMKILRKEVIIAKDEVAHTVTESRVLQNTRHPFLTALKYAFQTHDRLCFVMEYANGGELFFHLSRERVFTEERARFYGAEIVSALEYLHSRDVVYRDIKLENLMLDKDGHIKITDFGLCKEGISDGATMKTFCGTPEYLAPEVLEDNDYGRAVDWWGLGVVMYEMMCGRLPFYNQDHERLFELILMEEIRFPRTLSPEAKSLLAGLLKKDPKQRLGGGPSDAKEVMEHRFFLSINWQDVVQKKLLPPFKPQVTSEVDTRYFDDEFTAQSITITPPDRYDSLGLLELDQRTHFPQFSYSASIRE

B1: bi-L (designed binder)
peptide 1: [dW][dK][dV][dK][dL]-NH2
peptide 2: [dH][dN]G[dY][dF][dPra]
modifications: also: arms joined via S3 linker (azide, PEG2-biotin) coupled to the wkvkl N-terminus, biotin-PEG2 label, triazole to a chain's N/C-terminus via S3 linker
Take B1: the affinity in assay [1] came to 1 µM.
In the case of S1-[dW][dK][dV][dK][dL]-NH2 (designed binder) [mono-L], the affinity in assay [2] is 3 µM.

B2: N-tL (designed binder)
peptide 1: [dW][dK][dV][dK][dL]
peptide 2: [dH][dN]G[dY][dF]
peptide 3: Ac-[dPra][dY][dY][dR][dF]G-NH2
modifications: triazole (positions not given here); not fully specified (N-terminus, bridges); also: C-terminal D-Pra clicked via triazole to L-azidolysine of S4, arm not given here, N-terminus coupled to S4 (azidolysine-PEG2-biotin)
As usually defined, the EC50 is the concentration needed to bring the measured effect to its halfway point. Low readings indicate greater potency, high ones weaker potency. Broadly, the Kd is the constant that tells how readily two partners part at equilibrium. Regarding B2, in assay [3], the EC50 is 19 nM. Further, the dissociation constant (Kd) in assay [4] is 25 nM. For the same molecule, the affinity in assay [5] was determined as 20 nM.
